Biological target: T1, N3-2A, Modulator of β-cleavage of APP (MoBA)
T1 chain: DAVYYCGLKY

B1: purified β-secretase (protein)
chain: ETDEEPEEPGRRGSFVEMVDNLRGKSGQGYYVEMTVGSPPQTLNILVDTGSSNFAVGAAPHPFLHRYYQRQLSSTYRDLRKGVYVPYTQGKWEGELGTDLVSIPHGPNVTVRANIAAITESDKFFINGSNWEGILGLAYAEIARPDDSLEPFFDSLVKQTHVPNLFSLQLCGAGFPLNQSEVLASVGGSMIIGGIDHSLYTGSLWYTPIRREWYYEVIIVRVEINGQDLKMDCKEYNYDKSIVDSGTTNLRLPKKVFEAAVKSIKAASSTEKFPDGFWLGEQLVCWQAGTTPWNIFPVISLYLMGEVTNQSFRITILPQQYLRPVEDVATSQDDCYKFAISQSSTGTVMGAVIMEGFYVVFDRARKRIGFAVSACHVHDEFRTAAVEGPFVTLDMEDCGYNIPQTDESTLMT
activity of purified β-secretase on a fluorescent substrate (FRET assay): N3-2A did not inhibit the activity of purified β-secretase

Source: patent US20140314790
